Source: US20230250154A1

B1: Variant A2M, bait region SEQ ID NO 128, P01023 24-1474 (protein)
chain: SVSGKPQYMVLVPSLLHTETTEKGCVLLSYLNETVTVSASLESVRGNRSLFTDLEAENDVLHCVAFAVPKSSSNEEVMFLTVQVKGPTQEFKKRTTVMVKNEDSLVFVQTDKSIYKPGQTVKFRVVSMDENFHPLNELIPLVYIQDPKGNRIAQWQSFQLEGGLKQFSFPLSSEPFQGSYKVVVQKKSGGRTEHPFTVEEFVLPKFEVQVTVPKIITILEEEMNVSVCGLYTYGKPVPGHVTVSICRKYSDASDCHGEDSQAFCEKFSGQLNSHGCFYQQVKTKVFQLKRKEYEMKLHTEAQIQEEGTVVELTGRQSSEITRTITKLSFVKVDSHFRQGIPFFGQVRLVDGKGVPIPNKVIFIRGNEANYYSNATTDEHGLVQFSINTTNVMGTSLTVRVNYKDRSPCYGYQWVSEEHEEAHHTAYLVFSPSKSFVHLEPMSHELPCGHTQTVQAHYILNGGTLLGLKKLSFYYLIMAKGGIVRTGTHGLLVKQEDMKGHFSISIPVKSDIAPVARLLIYAVLPTGDVIGDSAKYDVENCLANKVDLSFSPSQSLPASHAHLRVTAAPQSVCALRAVDQSVLLMKPDAELSASSVYNLLPEKDLTGFPGPLNDQDDEDCINRHNVYINGITYTPVSSTNEKDMYSFLEDMGLKAFTNSKIRKPKMCPQLEQYEMHGPSELEGRGSEAIPMSIPTKEEEGLGSIPENFFGVVEEPHTKLRKYFPETWIWDLVVVNSAGVAEVGVTVPDTITEWKAGAFCLSEDAGLGISSTASLRAFQPFFVELTMPYSVIRGEAFTLKATVLNYLPKCIRVSVQLEASPAFLAVPVEKEQAPHCICANGRQTVSWAVTPKSLGNVNFTVSAEALESQELCGTEVPSVPEHGRKDTVIKPLLVEPEGLEKETTFNSLLCPSGGEVSEELSLKLPPNVVEESARASVSVLGDILGSAMQNTQNLLQMPYGCGEQNMVLFAPNIYVLDYLNETQQLTPEIKSKAIGYLNTGYQRQLNYKHYDGSYSTFGERYGRNQGNTWLTAFVLKTFAQARAYIFIDEAHITQALIWLSQRQKDNGCFRSSGSLLNNAIKGGVEDEVTLSAYITIALLEIPLTVTHPVVRNALFCLESAWKTAQEGDHGSHVYTKALLAYAFALAGNQDKRKEVLKSLNEEAVKKDNSVHWERPQKPKAPVGHFYEPQAPSAEVEMTSYVLLAYLTAQPAPTSEDLTSATNIVKWITKQQNAQGGFSSTQDTVVALHALSKYGAATFTRTGKAAQVTIQSSGTFSSKFQVDNNNRLLLQQVSLPELPGEYSMKVTGEGCVYLQTSLKYNILPEKEEFPFALGVQTLPQTCDEPKAHTSFQISLSVSYTGSRSASNMAIVDVKMVSGFIPLKPTVKMLERSNHVSRTEVSSNHVLIYLDKVSNQTLSLFFTVLQDVPVRDLKPAIVKVYDYYETDEFAIAEYNAPCSKDLGNADYKDDDDKGASHHHHHH
B2: Variant A2M, bait region SEQ ID NO 129, P01023 24-1474 (protein)
chain: SVSGKPQYMVLVPSLLHTETTEKGCVLLSYLNETVTVSASLESVRGNRSLFTDLEAENDVLHCVAFAVPKSSSNEEVMFLTVQVKGPTQEFKKRTTVMVKNEDSLVFVQTDKSIYKPGQTVKFRVVSMDENFHPLNELIPLVYIQDPKGNRIAQWQSFQLEGGLKQFSFPLSSEPFQGSYKVVVQKKSGGRTEHPFTVEEFVLPKFEVQVTVPKIITILEEEMNVSVCGLYTYGKPVPGHVTVSICRKYSDASDCHGEDSQAFCEKFSGQLNSHGCFYQQVKTKVFQLKRKEYEMKLHTEAQIQEEGTVVELTGRQSSEITRTITKLSFVKVDSHFRQGIPFFGQVRLVDGKGVPIPNKVIFIRGNEANYYSNATTDEHGLVQFSINTTNVMGTSLTVRVNYKDRSPCYGYQWVSEEHEEAHHTAYLVFSPSKSFVHLEPMSHELPCGHTQTVQAHYILNGGTLLGLKKLSFYYLIMAKGGIVRTGTHGLLVKQEDMKGHFSISIPVKSDIAPVARLLIYAVLPTGDVIGDSAKYDVENCLANKVDLSFSPSQSLPASHAHLRVTAAPQSVCALRAVDQSVLLMKPDAELSASSVYNLLPEKDLTGFPGPLNDQDDEDCINRHNVYINGITYTPVSSTNEKDMYSFLEDMGLKAFTNSKIRKPKMCPQLEQYEMHGPEAIPMSIPTEGEGEGEGIPENFFGVSEDLVVQIVEEPHTKLRKYFPETWIWDLVVVNSAGVAEVGVTVPDTITEWKAGAFCLSEDAGLGISSTASLRAFQPFFVELTMPYSVIRGEAFTLKATVLNYLPKCIRVSVQLEASPAFLAVPVEKEQAPHCICANGRQTVSWAVTPKSLGNVNFTVSAEALESQELCGTEVPSVPEHGRKDTVIKPLLVEPEGLEKETTFNSLLCPSGGEVSEELSLKLPPNVVEESARASVSVLGDILGSAMQNTQNLLQMPYGCGEQNMVLFAPNIYVLDYLNETQQLTPEIKSKAIGYLNTGYQRQLNYKHYDGSYSTFGERYGRNQGNTWLTAFVLKTFAQARAYIFIDEAHITQALIWLSQRQKDNGCFRSSGSLLNNAIKGGVEDEVTLSAYITIALLEIPLTVTHPVVRNALFCLESAWKTAQEGDHGSHVYTKALLAYAFALAGNQDKRKEVLKSLNEEAVKKDNSVHWERPQKPKAPVGHFYEPQAPSAEVEMTSYVLLAYLTAQPAPTSEDLTSATNIVKWITKQQNAQGGFSSTQDTVVALHALSKYGAATFTRTGKAAQVTIQSSGTFSSKFQVDNNNRLLLQQVSLPELPGEYSMKVTGEGCVYLQTSLKYNILPEKEEFPFALGVQTLPQTCDEPKAHTSFQISLSVSYTGSRSASNMAIVDVKMVSGFIPLKPTVKMLERSNHVSRTEVSSNHVLIYLDKVSNQTLSLFFTVLQDVPVRDLKPAIVKVYDYYETDEFAIAEYNAPCSKDLGNADYKDDDDKGASHHHHHH
B3: Variant A2M, bait region SEQ ID NO 131, P01023 24-1474 (protein)
chain: SVSGKPQYMVLVPSLLHTETTEKGCVLLSYLNETVTVSASLESVRGNRSLFTDLEAENDVLHCVAFAVPKSSSNEEVMFLTVQVKGPTQEFKKRTTVMVKNEDSLVFVQTDKSIYKPGQTVKFRVVSMDENFHPLNELIPLVYIQDPKGNRIAQWQSFQLEGGLKQFSFPLSSEPFQGSYKVVVQKKSGGRTEHPFTVEEFVLPKFEVQVTVPKIITILEEEMNVSVCGLYTYGKPVPGHVTVSICRKYSDASDCHGEDSQAFCEKFSGQLNSHGCFYQQVKTKVFQLKRKEYEMKLHTEAQIQEEGTVVELTGRQSSEITRTITKLSFVKVDSHFRQGIPFFGQVRLVDGKGVPIPNKVIFIRGNEANYYSNATTDEHGLVQFSINTTNVMGTSLTVRVNYKDRSPCYGYQWVSEEHEEAHHTAYLVFSPSKSFVHLEPMSHELPCGHTQTVQAHYILNGGTLLGLKKLSFYYLIMAKGGIVRTGTHGLLVKQEDMKGHFSISIPVKSDIAPVARLLIYAVLPTGDVIGDSAKYDVENCLANKVDLSFSPSQSLPASHAHLRVTAAPQSVCALRAVDQSVLLMKPDAELSASSVYNLLPEKDLTGFPGPLNDQDDEDCINRHNVYINGITYTPVSSTNEKDMYSFLEDMGLKAFTNSKIRKPKMCPQLEQYEMHGPEGEGEGEGISEDLVVQIPENFFGVKEEEGLGSVEEPHTKLRKYFPETWIWDLVVVNSAGVAEVGVTVPDTITEWKAGAFCLSEDAGLGISSTASLRAFQPFFVELTMPYSVIRGEAFTLKATVLNYLPKCIRVSVQLEASPAFLAVPVEKEQAPHCICANGRQTVSWAVTPKSLGNVNFTVSAEALESQELCGTEVPSVPEHGRKDTVIKPLLVEPEGLEKETTFNSLLCPSGGEVSEELSLKLPPNVVEESARASVSVLGDILGSAMQNTQNLLQMPYGCGEQNMVLFAPNIYVLDYLNETQQLTPEIKSKAIGYLNTGYQRQLNYKHYDGSYSTFGERYGRNQGNTWLTAFVLKTFAQARAYIFIDEAHITQALIWLSQRQKDNGCFRSSGSLLNNAIKGGVEDEVTLSAYITIALLEIPLTVTHPVVRNALFCLESAWKTAQEGDHGSHVYTKALLAYAFALAGNQDKRKEVLKSLNEEAVKKDNSVHWERPQKPKAPVGHFYEPQAPSAEVEMTSYVLLAYLTAQPAPTSEDLTSATNIVKWITKQQNAQGGFSSTQDTVVALHALSKYGAATFTRTGKAAQVTIQSSGTFSSKFQVDNNNRLLLQQVSLPELPGEYSMKVTGEGCVYLQTSLKYNILPEKEEFPFALGVQTLPQTCDEPKAHTSFQISLSVSYTGSRSASNMAIVDVKMVSGFIPLKPTVKMLERSNHVSRTEVSSNHVLIYLDKVSNQTLSLFFTVLQDVPVRDLKPAIVKVYDYYETDEFAIAEYNAPCSKDLGNADYKDDDDKGASHHHHHH
B4: Variant A2M, bait region SEQ ID NO 132, P01023 24-1474 (protein)
chain: SVSGKPQYMVLVPSLLHTETTEKGCVLLSYLNETVTVSASLESVRGNRSLFTDLEAENDVLHCVAFAVPKSSSNEEVMFLTVQVKGPTQEFKKRTTVMVKNEDSLVFVQTDKSIYKPGQTVKFRVVSMDENFHPLNELIPLVYIQDPKGNRIAQWQSFQLEGGLKQFSFPLSSEPFQGSYKVVVQKKSGGRTEHPFTVEEFVLPKFEVQVTVPKIITILEEEMNVSVCGLYTYGKPVPGHVTVSICRKYSDASDCHGEDSQAFCEKFSGQLNSHGCFYQQVKTKVFQLKRKEYEMKLHTEAQIQEEGTVVELTGRQSSEITRTITKLSFVKVDSHFRQGIPFFGQVRLVDGKGVPIPNKVIFIRGNEANYYSNATTDEHGLVQFSINTTNVMGTSLTVRVNYKDRSPCYGYQWVSEEHEEAHHTAYLVFSPSKSFVHLEPMSHELPCGHTQTVQAHYILNGGTLLGLKKLSFYYLIMAKGGIVRTGTHGLLVKQEDMKGHFSISIPVKSDIAPVARLLIYAVLPTGDVIGDSAKYDVENCLANKVDLSFSPSQSLPASHAHLRVTAAPQSVCALRAVDQSVLLMKPDAELSASSVYNLLPEKDLTGFPGPLNDQDDEDCINRHNVYINGITYTPVSSTNEKDMYSFLEDMGLKAFTNSKIRKPKMCPQLEQYEMHGPEGEGEGEGIPENFFGVSELEGRGSSEDLVVQIVEEPHTKLRKYFPETWIWDLVVVNSAGVAEVGVTVPDTITEWKAGAFCLSEDAGLGISSTASLRAFQPFFVELTMPYSVIRGEAFTLKATVLNYLPKCIRVSVQLEASPAFLAVPVEKEQAPHCICANGRQTVSWAVTPKSLGNVNFTVSAEALESQELCGTEVPSVPEHGRKDTVIKPLLVEPEGLEKETTFNSLLCPSGGEVSEELSLKLPPNVVEESARASVSVLGDILGSAMQNTQNLLQMPYGCGEQNMVLFAPNIYVLDYLNETQQLTPEIKSKAIGYLNTGYQRQLNYKHYDGSYSTFGERYGRNQGNTWLTAFVLKTFAQARAYIFIDEAHITQALIWLSQRQKDNGCFRSSGSLLNNAIKGGVEDEVTLSAYITIALLEIPLTVTHPVVRNALFCLESAWKTAQEGDHGSHVYTKALLAYAFALAGNQDKRKEVLKSLNEEAVKKDNSVHWERPQKPKAPVGHFYEPQAPSAEVEMTSYVLLAYLTAQPAPTSEDLTSATNIVKWITKQQNAQGGFSSTQDTVVALHALSKYGAATFTRTGKAAQVTIQSSGTFSSKFQVDNNNRLLLQQVSLPELPGEYSMKVTGEGCVYLQTSLKYNILPEKEEFPFALGVQTLPQTCDEPKAHTSFQISLSVSYTGSRSASNMAIVDVKMVSGFIPLKPTVKMLERSNHVSRTEVSSNHVLIYLDKVSNQTLSLFFTVLQDVPVRDLKPAIVKVYDYYETDEFAIAEYNAPCSKDLGNADYKDDDDKGASHHHHHH

Target: Protease Mixtures
Assay: cell-based or functional assay

| Binder | Protease Inhibition (% of WT); Protease Mixtures, IGD Substrate | Protease Inhibition (% of WT); Protease Mixtures, Collagen Substrate |
| --- | --- | --- |
| B1 | 125 % of WT | – |
| B2 | 160 % of WT | – |
| B3 | 150 % of WT | – |
| B4 | 243 % of WT | 120 % of WT |
